Experimental data from the supplement of paper PMC10065799, “High-throughput profiling of sequence recognition by tyrosine kinases and SH2 domains using bacterial peptide display” (eLife, 2023).

Assays:
c-Src SH2 = assay: SH2 binding enrichment of the phosphorylated peptide, bacterial display (enrichment ratio); higher = better substrate or ligand; peptides without Tyr show the background
SHP2-C SH2 = assay: as above
Grb2 SH2 = Grb2 SH2 (UniProt P62993); assay: as above
EPHB1 = EPHB1 (UniProt P54762); assay: phosphorylation enrichment, bacterial display (enrichment ratio); higher = better substrate or ligand; peptides without Tyr show the background
Chain of EPHB1 (P54762 whole entry, looked up): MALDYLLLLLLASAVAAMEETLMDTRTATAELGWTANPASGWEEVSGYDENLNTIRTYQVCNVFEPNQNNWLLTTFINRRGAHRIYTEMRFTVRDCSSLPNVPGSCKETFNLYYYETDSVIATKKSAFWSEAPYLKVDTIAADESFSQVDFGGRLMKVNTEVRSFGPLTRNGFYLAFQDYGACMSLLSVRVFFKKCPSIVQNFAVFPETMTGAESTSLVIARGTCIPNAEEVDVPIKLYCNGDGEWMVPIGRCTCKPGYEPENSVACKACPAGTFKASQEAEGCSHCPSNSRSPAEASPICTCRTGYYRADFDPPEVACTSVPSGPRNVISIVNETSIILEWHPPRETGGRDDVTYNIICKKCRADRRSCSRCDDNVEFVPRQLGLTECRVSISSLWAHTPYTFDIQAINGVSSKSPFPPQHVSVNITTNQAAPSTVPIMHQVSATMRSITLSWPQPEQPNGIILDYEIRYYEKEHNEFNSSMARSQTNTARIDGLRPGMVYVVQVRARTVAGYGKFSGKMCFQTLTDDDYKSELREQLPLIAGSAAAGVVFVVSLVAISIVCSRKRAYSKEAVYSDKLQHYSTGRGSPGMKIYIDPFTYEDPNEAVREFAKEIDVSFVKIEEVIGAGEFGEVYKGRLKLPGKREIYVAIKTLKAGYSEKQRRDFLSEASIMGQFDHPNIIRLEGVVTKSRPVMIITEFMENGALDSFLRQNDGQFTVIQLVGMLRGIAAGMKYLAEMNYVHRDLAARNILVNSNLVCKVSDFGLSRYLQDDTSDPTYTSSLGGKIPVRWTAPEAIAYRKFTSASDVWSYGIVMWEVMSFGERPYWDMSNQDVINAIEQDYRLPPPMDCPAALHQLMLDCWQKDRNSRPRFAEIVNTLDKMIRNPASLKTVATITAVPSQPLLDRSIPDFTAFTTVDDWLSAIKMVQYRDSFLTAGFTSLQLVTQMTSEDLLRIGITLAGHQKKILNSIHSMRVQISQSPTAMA

Fyn = Fyn (UniProt P06241); assay: as above
Chain of Fyn (P06241 whole entry, looked up): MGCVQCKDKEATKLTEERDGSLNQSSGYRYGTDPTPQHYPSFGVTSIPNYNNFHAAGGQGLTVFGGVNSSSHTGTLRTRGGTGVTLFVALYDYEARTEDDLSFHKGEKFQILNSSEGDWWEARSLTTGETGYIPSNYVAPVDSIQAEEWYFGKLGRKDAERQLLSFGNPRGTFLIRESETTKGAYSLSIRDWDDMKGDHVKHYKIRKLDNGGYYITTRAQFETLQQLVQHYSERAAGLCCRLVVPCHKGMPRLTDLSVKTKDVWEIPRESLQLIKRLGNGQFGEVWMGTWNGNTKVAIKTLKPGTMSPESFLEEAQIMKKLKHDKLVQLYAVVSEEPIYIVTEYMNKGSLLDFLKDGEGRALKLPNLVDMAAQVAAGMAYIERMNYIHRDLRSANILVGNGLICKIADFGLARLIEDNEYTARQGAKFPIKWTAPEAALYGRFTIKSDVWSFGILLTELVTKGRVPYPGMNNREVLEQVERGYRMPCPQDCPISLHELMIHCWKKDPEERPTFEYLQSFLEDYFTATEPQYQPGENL

AncSZ = assay: as above
MERTK = MERTK (UniProt Q12866); assay: as above
Chain of MERTK (Q12866 whole entry, looked up): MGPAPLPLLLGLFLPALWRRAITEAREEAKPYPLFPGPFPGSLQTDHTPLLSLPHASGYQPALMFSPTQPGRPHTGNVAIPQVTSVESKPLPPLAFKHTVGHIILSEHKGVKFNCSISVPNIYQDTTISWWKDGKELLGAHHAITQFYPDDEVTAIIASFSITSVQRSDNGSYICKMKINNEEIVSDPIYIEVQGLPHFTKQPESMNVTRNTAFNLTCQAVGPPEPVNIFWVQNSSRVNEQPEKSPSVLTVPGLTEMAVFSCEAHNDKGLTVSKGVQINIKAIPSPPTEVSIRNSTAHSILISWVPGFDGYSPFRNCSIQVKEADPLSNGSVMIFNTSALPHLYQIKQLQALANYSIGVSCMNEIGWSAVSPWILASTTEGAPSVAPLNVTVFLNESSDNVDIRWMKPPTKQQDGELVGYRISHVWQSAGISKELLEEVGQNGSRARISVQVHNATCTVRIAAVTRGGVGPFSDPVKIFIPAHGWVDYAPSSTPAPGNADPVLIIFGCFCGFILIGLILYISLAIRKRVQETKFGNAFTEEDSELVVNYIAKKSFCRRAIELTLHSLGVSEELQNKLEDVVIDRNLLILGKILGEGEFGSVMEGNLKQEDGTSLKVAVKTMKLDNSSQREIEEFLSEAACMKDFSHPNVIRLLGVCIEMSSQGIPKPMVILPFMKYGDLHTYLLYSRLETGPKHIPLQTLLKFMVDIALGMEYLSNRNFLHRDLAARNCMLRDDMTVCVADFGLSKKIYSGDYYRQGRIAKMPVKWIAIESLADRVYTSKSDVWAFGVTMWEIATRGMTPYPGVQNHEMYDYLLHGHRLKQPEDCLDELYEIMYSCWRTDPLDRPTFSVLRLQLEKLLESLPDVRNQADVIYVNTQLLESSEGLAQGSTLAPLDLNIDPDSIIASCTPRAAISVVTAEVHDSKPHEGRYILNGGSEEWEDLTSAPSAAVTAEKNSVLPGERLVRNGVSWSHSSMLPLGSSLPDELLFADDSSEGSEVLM

Hck = Hck (UniProt P08631); assay: as above
Chain of Hck (P08631 whole entry, looked up): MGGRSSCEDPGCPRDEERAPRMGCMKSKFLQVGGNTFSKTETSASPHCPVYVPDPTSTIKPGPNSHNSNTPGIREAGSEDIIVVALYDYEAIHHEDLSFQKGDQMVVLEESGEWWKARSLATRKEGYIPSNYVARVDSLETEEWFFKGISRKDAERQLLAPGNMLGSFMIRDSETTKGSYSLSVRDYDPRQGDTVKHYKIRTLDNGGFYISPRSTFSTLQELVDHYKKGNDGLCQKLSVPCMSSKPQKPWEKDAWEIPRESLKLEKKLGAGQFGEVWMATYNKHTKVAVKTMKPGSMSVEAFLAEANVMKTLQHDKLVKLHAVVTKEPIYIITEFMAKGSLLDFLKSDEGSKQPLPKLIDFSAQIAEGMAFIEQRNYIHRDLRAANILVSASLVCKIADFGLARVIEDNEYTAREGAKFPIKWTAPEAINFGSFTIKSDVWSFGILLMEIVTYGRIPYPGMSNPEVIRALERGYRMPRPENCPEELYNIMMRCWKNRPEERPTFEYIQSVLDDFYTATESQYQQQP

EPHB2 = EPHB2 (UniProt P29323); assay: as above
Jak2 = Jak2 (UniProt O60674); assay: as above
Fes = Fes (UniProt P07332); assay: as above
FGFR3 = FGFR3 (UniProt P22607); assay: as above
Chain of FGFR3 (P22607 whole entry, looked up): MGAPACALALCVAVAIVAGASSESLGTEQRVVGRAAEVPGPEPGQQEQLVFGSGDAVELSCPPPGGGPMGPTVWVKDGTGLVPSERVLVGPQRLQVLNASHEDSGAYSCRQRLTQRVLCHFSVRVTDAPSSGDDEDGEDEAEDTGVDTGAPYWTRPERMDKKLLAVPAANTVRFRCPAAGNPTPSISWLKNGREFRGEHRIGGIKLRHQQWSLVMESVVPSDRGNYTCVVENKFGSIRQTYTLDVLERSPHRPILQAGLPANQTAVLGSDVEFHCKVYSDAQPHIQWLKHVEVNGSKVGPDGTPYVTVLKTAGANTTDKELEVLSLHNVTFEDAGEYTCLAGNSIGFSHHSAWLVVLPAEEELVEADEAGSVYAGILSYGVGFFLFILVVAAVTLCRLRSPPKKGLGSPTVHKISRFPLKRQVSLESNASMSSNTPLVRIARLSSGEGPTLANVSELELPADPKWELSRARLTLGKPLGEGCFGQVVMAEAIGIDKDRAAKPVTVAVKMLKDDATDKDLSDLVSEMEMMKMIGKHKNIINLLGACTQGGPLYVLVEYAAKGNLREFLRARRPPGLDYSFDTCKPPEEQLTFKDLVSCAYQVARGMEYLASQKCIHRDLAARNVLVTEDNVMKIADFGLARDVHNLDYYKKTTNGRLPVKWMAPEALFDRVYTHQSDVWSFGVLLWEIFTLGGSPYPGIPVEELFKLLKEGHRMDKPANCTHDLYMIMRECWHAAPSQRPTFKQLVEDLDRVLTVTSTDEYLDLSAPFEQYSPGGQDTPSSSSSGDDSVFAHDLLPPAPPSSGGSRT

c-Abl (mouse) = assay: as above
Fer (mouse) = assay: as above
c-Src = assay: as above
FGFR1 = FGFR1 (UniProt P11362); assay: as above
Chain of FGFR1 (P11362 whole entry, looked up, the tested form may be a part): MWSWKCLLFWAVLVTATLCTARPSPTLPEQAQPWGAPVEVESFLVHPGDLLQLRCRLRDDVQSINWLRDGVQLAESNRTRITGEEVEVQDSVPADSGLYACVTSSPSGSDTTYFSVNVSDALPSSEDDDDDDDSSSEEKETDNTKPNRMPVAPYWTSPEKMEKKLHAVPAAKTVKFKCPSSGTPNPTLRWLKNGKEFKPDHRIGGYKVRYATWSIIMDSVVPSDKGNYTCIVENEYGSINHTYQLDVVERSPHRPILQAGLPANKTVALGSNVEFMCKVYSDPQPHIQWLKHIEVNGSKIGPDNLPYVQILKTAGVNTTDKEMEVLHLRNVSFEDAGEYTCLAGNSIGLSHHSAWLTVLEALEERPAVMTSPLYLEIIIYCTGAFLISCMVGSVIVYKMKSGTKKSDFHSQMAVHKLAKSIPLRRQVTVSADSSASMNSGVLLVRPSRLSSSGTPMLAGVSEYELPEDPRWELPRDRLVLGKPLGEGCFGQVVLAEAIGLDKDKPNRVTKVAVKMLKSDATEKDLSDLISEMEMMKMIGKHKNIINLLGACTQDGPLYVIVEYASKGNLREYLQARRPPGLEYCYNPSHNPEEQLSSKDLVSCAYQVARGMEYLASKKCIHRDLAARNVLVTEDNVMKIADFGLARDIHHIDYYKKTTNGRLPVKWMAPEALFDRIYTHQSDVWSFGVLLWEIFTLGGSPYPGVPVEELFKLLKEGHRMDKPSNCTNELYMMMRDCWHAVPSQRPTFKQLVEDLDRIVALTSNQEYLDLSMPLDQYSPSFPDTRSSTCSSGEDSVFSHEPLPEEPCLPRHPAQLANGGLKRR
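Throughout, for SH2 binding enrichment of the phosphorylated peptide, bacterial display: peptide library displayed on the E. coli surface as eCPX fusions, selected cells deep-sequenced, score is each peptide's frequency after selection divided by its frequency in the input.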
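Throughout, for phosphorylation enrichment, bacterial display: 11-residue human phosphosite peptides and single-mutation variants displayed on the E. coli surface, counted by deep sequencing, each peptide's frequency after selection divided by its frequency in the unselected input library; frequency after pTyr selection over input frequency; kinase dosed for 20-30% of maximal phosphorylation in three min.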

Chain of Grb2 SH2 (P62993 whole entry, looked up): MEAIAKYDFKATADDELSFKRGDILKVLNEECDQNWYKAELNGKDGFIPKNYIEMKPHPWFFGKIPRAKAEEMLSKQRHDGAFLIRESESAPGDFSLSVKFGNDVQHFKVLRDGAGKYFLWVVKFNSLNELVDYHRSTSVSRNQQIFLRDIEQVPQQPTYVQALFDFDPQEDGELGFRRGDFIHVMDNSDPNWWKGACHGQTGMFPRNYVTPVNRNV

Sequence	SH2 binding enrichment (c-Src SH2)	SH2 binding enrichment (SHP2-C SH2)	SH2 binding enrichment (Grb2 SH2)	phosphorylation enrichment (EPHB1)	phosphorylation enrichment (Fyn)	phosphorylation enrichment (AncSZ)	phosphorylation enrichment (MERTK)	phosphorylation enrichment (Hck)	phosphorylation enrichment (EPHB2)	phosphorylation enrichment (Jak2)	phosphorylation enrichment (Fes)	phosphorylation enrichment (FGFR3)	phosphorylation enrichment (c-Abl (mouse))	phosphorylation enrichment (Fer (mouse))	phosphorylation enrichment (c-Src)	phosphorylation enrichment (FGFR1)
AAGGRYYGLVG [HARS1_Y363_D364Y]	1.79	0.595	0.938	0.347	0.618	0.56	3.95	0.715	0.441	0.49	0.601	0.451	0.671	0.45	0.867	0.432
AAILGYCHGEA [XPC_Y669_R671H]	0.549	0.701	0.855	0.581	0.535	0.975	0.827	0.53	0.75	0.725	1.03	0.733	0.7	0.474	0.373	0.523
AAVDTYCRHNF [HLA-DRB1_Y107_YF]	0.529	0.593	0.912	0.562	0.415	0.794	0.497	0.501	0.516	0.88	1.04	0.715	0.755	0.589	0.548	0.426
ADAGMYGVLPW [PLP1_Y207_R205G]	0.435	0.74	0.726	1.76	9.65	0.803	6.35	9.1	6.53	0.637	0.845	0.529	3.07	2.39	6.61	0.549
ADARMYGDLPW [PLP1_Y207_V209D]	0.573	1.09	0.868	0.65	3.54	0.766	0.52	3.49	0.506	0.71	0.794	0.7	0.586	1.43	2.74	0.6
ADFFDYGRGLS [KHDRBS3_Y304_H306R_YF]	0.625	0.554	0.82	0.426	0.518	0.808	0.369	0.421	0.522	0.798	0.746	0.702	0.59	0.4	0.521	0.414
ADTETYLLEKS [MYH7_Y266_I263T]	0.56	0.785	0.859	0.449	0.603	1.12	0.385	0.512	0.586	1.01	1.1	0.745	0.709	0.607	0.551	0.57
AEDKPYAELWT [MPI_Y46_M51T]	2.62	1.11	0.929	0.689	1.3	1.17	0.994	1.13	0.737	0.958	1.25	1	0.772	7.1	2.54	1.01
AFPGEYIPTVF [RAC1_Y32]	0.544	0.723	1.05	0.444	0.381	0.776	0.474	0.492	0.476	0.924	0.828	0.617	0.689	0.509	0.476	0.618
AFRHGYFDEEM [PLEC_Y2971_R2969H_YF]	0.606	0.614	0.832	0.498	0.487	1.13	0.478	0.456	0.59	1.3	1.12	0.676	0.806	0.593	0.412	0.554
AGAKTYKMSMA [CPS1_Y309]	0.586	0.819	0.688	0.328	0.402	0.389	0.364	0.374	0.264	0.527	0.405	0.426	0.383	0.406	0.399	0.309
AGQEDCDRLRP [CDC42_Y64_Y64C]	0.548	0.945	1.07	0.552	0.436	0.784	0.364	0.424	0.444	0.682	0.882	0.586	0.609	0.439	0.427	0.476
AGQEKYSAMRD [HRAS_Y64_E63K]	0.496	0.639	0.703	0.318	0.427	0.574	0.312	0.423	0.424	0.618	0.837	0.498	0.604	0.37	0.416	0.324
AHEALYLEADL [CENPF_Y1920_E1915A]	0.399	0.386	0.577	0.781	0.692	1.82	1.03	0.736	0.802	1.05	1.29	2.09	1.09	1.12	0.855	2.2
AIFEGYALPHA [ACTC1_Y171_P166A_YF]	5.11	0.518	0.932	0.452	0.472	0.732	0.726	0.43	0.401	0.539	0.801	0.535	1.2	0.605	0.414	0.549
